Data: the supplement of paper PMC10567573

B1: SFRS1 (parent)
chain: YSPRRSRGSPRYSPRHSRSRSRT

Variants of: B1
Assay: protein stability index of a GFP-peptide fusion (GPS, HEK-293T) (PSI 1-6); higher = more stable
Conditions: c terminus: native
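Further: lentivirally expressed fusions sorted by FACS into six bins by GFP to DsRed ratio, PSI derived from sequencing read proportions per bin multiplied by bin number.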

| Variant | protein stability index |
| --- | --- |
| YSPRRSRGSPRPSPRHSRSRSRT | 3.99 |
| YSPRRSRGSPRTSPRHSRSRSRT | 4.27 |
| YSPRRSRGSPRQSPRHSRSRSRT | 4.43 |
| YSPRRSRGSPRNSPRHSRSRSRT | 4.21 |
| YSPRRSRGSPRHSPRHSRSRSRT | 3.28 |
| YSPRRSRGSPRRSPRHSRSRSRT | 4.25 |
| YSPRRSRGSPRISPRHSRSRSRT | 3.72 |
| YSPRRSRGSPRVSPRHSRSRSRT | 4.18 |
| YSPRRSRGSPRSSPRHSRSRSRT | 4.17 |
| YSPRRSRGSPRLSPRHSRSRSRT | 4.03 |
| YSPRRSRGSPRASPRHSRSRSRT | 3.89 |
| YSPRRSRGSPRWSPRHSRSRSRT | 4.43 |
| YSPRRSRGSPRCSPRHSRSRSRT | 3.61 |
| YSPRRSRGSPRESPRHSRSRSRT | 4.47 |
| YSPRRSRGSPRMSPRHSRSRSRT | 3.62 |
| YSPRRSRGSPRDSPRHSRSRSRT | 4.38 |
| YSPRRSRGSPRFSPRHSRSRSRT | 3.7 |
| YSPRRSRGSPRKSPRHSRSRSRT | 3.73 |
| YSPRRSRGSPPYSPRHSRSRSRT | 3.44 |
| YSPRRSRGSPLYSPRHSRSRSRT | 2.85 |
| YSPRRSRGSPKYSPRHSRSRSRT | 3.85 |
| YSPRRSRGSPHYSPRHSRSRSRT | 3.22 |
| YSPRRSRGSPGYSPRHSRSRSRT | 3.5 |
| YSPRRSRGSPCYSPRHSRSRSRT | 2.36 |
| YSPRRSRGSPEYSPRHSRSRSRT | 2.39 |

| Variant | protein stability index |
| --- | --- |
| YSPRRSRGSPSYSPRHSRSRSRT | 3.3 |
| YSPRRSRGSPIYSPRHSRSRSRT | 2.73 |
| YSPRRSRGSPDYSPRHSRSRSRT | 2.31 |
| YSPRRSRGSPTYSPRHSRSRSRT | 3.29 |
| YSPRRSRGSPVYSPRHSRSRSRT | 3.05 |
| YSPRRSRGSPYYSPRHSRSRSRT | 2.54 |
| YSPRRSRGSPNYSPRHSRSRSRT | 3.98 |
| YSPRRSRGSPFYSPRHSRSRSRT | 2.8 |
| YSPRRSRGSPMYSPRHSRSRSRT | 3.47 |
| YSPRRSRGSPQYSPRHSRSRSRT | 4.39 |
| YSPRRSRGSPWYSPRHSRSRSRT | 1.79 |
| YSPRRSRGSPAYSPRHSRSRSRT | 3.25 |
| YSPRRSRGSPRYIPRHSRSRSRT | 3.71 |
| YSPRRSRGSPRYKPRHSRSRSRT | 4.64 |
| YSPRRSRGSPRYEPRHSRSRSRT | 4.01 |
| YSPRRSRGSPRYWPRHSRSRSRT | 2.9 |
| YSPRRSRGSPRYDPRHSRSRSRT | 3.72 |
| YSPRRSRGSPRYMPRHSRSRSRT | 3.82 |
| YSPRRSRGSPRYGPRHSRSRSRT | 4.41 |
| YSPRRSRGSPRYPPRHSRSRSRT | 3.55 |
| YSPRRSRGSPRYNPRHSRSRSRT | 3.64 |
| YSPRRSRGSPRYQPRHSRSRSRT | 3.76 |
| YSPRRSRGSPRYCPRHSRSRSRT | 1.35 |
| YSPRRSRGSPRYAPRHSRSRSRT | 3.41 |
| YSPRRSRGSPRYYPRHSRSRSRT | 3.13 |

| Variant | protein stability index |
| --- | --- |
| YSPRRSRGSPRYFPRHSRSRSRT | 3.59 |
| YSPRRSRGSPRYHPRHSRSRSRT | 3.62 |
| YSPRRSRGSPRYTPRHSRSRSRT | 3.63 |
| YSPRRSRGSPRYRPRHSRSRSRT | 4.11 |
| YSPRRSRGSPRYLPRHSRSRSRT | 3.89 |
| YSPRRSRGSPRYVPRHSRSRSRT | 3.37 |
| YSPRRSRGSPRYSPRHSRSASRT | 3.68 |
| YSPRRSRGSPRYSPRHSRSCSRT | 3.49 |
| YSPRRSRGSPRYSVRHSRSRSRT | 4.03 |
| YSPRRSRGSPRYSNRHSRSRSRT | 4.28 |
| YSPRRSRGSPRYSLRHSRSRSRT | 3.56 |
| YSPRRSRGSPRYSTRHSRSRSRT | 3.89 |
| YSPRRSRGSPRYSGRHSRSRSRT | 4.46 |
| YSPRRSRGSPRYSARHSRSRSRT | 4.03 |
| YSPRRSRGSPRYSIRHSRSRSRT | 4.15 |
| YSPRRSRGSPRYSMRHSRSRSRT | 3.52 |
| YSPRRSRGSPRYSKRHSRSRSRT | 4.57 |
| YSPRRSRGSPRYSCRHSRSRSRT | 1.97 |
| YSPRRSRGSPRYSERHSRSRSRT | 4.04 |
| YSPRRSRGSPRYSSRHSRSRSRT | 3.54 |
| YSPRRSRGSPRYSWRHSRSRSRT | 3.22 |
| YSPRRSRGSPRYSYRHSRSRSRT | 3.64 |
| YSPRRSRGSPRYSHRHSRSRSRT | 4.16 |
| YSPRRSRGSPRYSDRHSRSRSRT | 3.46 |
| YSPRRSRGSPRYSRRHSRSRSRT | 4.48 |

| Variant | protein stability index |
| --- | --- |
| YSPRRSRGSPRYSFRHSRSRSRT | 3.21 |
| YSPRRSRGSPRYSPIHSRSRSRT | 3.05 |
| YSPRRSRGSPRYSPDHSRSRSRT | 3.16 |
| YSPRRSRGSPRYSPKHSRSRSRT | 3.98 |
| YSPRRSRGSPRYSPNHSRSRSRT | 3.34 |
| YSPRRSRGSPRYSPVHSRSRSRT | 2.65 |
| YSPRRSRGSPRYSPQHSRSRSRT | 3.39 |
| YSPRRSRGSPRYSPPHSRSRSRT | 2.12 |
| YSPRRSRGSPRYSPTHSRSRSRT | 2.58 |
| YSPRRSRGSPRYSPEHSRSRSRT | 3.56 |
| YSPRRSRGSPRYSPLHSRSRSRT | 3 |
| YSPRRSRGSPRYSPAHSRSRSRT | 3.36 |
| YSPRRSRGSPRYSPHHSRSRSRT | 4.39 |
| YSPRRSRGSPRYSPCHSRSRSRT | 2.64 |
| YSPRRSRGSPRYSPYHSRSRSRT | 3.06 |
| YSPRRSRGSPRYSPMHSRSRSRT | 3.48 |
| YSPRRSRGSPRYSPSHSRSRSRT | 3.82 |
| YSPRRSRGSPRYSPFHSRSRSRT | 2.17 |
| YSPRRSRGSPRYSPGHSRSRSRT | 3.9 |
| YSPRRSRGSVRYSPRHSRSRSRT | 3.69 |
| YSPRRSRGSHRYSPRHSRSRSRT | 4.38 |
| YSPRRSRGSLRYSPRHSRSRSRT | 3.61 |
